Experimental data reported in patent US20240425572A1 (REGENXBIO, published 2024).

Biological target: T1, fragment of the LEM peptide having the amino acid sequence of LEMPSSLMLEVP (SEQ ID NO: 2)
T1 peptide: LEMPSSLMLEVP
Assay: MSD binding assay (format for the fragment not detailed)
Protocol: LEM peptide specific rabbit polyclonal and monoclonal antibodies were produced using standard laboratory technologies. Binding affinity of the antibodies was assessed using MSD experiment performed according to the manufacturer's protocols. MSD plates were coated with 1 mg/ml of peptide in PBS and blocked with casein in PBS. Anti-rabbit sulfo-tagged antibody was used as the detection agent. Antibody binding specificity was assessed using control reactions that included the target peptide to inhibit binding. […] None of the antibodies tested can bind to a fragment of the LEM peptide having the amino acid sequence of […] (SEQ ID NO: 2).

B1: 130D2-1 (antibody, V domains shown)
VH: QSLAESGGRLVTPGTPLTLTCTVSGVDLSYYPMTWVRQAPGKGLEYIGIILHNGTSCYARWARGRFTISKTSTTVELRITSPTTEDTATYFCARASVASIVGSSDIWGPGTLVTVSS
VL: LVLTQTPSSVSAAVGGTVTINCQSSQSVYKNSALSWYQQKPGQPPKLLIYGASTLASGVPSRFSGNGSGTQFTLTISGVQCADAATYYCTGAINDEIHAFGGGTEVVVR
notes: Rabbit monoclonal IgG; also called 130D2-1 monoclonal anti-LEM antibody; anti-LEM mAb
binding result: no binding
